From patent publication US20160200789A1, “IL4 CONJUGATED TO ANTIBODIES AGAINST EXTRACELLULAR MATRIX COMPONENTS” (PHILOGEN S.P.A., priority 2013, published 2016)

Experiments:
[1] = test system: A20 lymphoma; assay: Biodistribution and ex vivo immunofluorescence in A20 tumour-bearing mice; conditions: after i.v. administration
[2] = test system: CT26 colon carcinoma; assay: Therapy studies in CT26 tumour-bearing mice; conditions: 90 μg i.v. every 48 h
Text: (§1) Data represent mean tumour volumes (±SEM), n=5 mice per group. […] Data represent mean tumour volumes (±SEM), n=5 mice per group.
In the description of the below experiments, data are expressed as the mean (±SEM). Differences in tumor volume, % ID/g and Tumor-to-blood ratio between therapeutic groups were compared using Graphpad Prism's repeated measures (mixed model) ANOVA analysis.
Mice were sacrificed when tumour volumes reached a maximum of 2000 mm^3.
(§2) In order to study a second immunocompetent mouse model of cancer, the inventors focused on Balb/c mice (obtained from Elevage Janvier [France]) bearing subcutaneous CT26 tumours of colorectal origin.

[3] = target: T1, EDA domain of fibronectin (Homo sapiens, UniProt P02751); assay: Surface plasmon analysis (BIAcore) on EDA antigen-coated sensor chip; format: binding
T1 construct: surface plasmon analysis (BIAcore) on an EDA antigen-coated sensor chip
T1 sequence (P02751 1727-1814 limits assumed): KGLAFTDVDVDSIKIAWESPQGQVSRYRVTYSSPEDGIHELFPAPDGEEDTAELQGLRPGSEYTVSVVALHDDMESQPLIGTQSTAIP
Text: The fusion protein was expressed and purified to homogeneity as described for F8-IL4 above.

[4] = test system: collagen induced arthritis in DBA/1J mice; assay: Aggressive collagen induced arthritis model, targeted vs untargeted IL4 (Example 3a); format: in vivo, mouse; conditions: 100 μg/injection i.v., days 1, 3 and 7
Experimental: Injections were administered on day 1, 3 and 7.

[5] = test system: CT26 colon carcinoma; assay: Ex vivo immunofluorescence of CT26 tumours; format: in vivo, mouse
Text: as §2

[6] = test system: collagen induced arthritis in DBA/1J mice; assay: Aggressive collagen induced arthritis model, F8-IL4 dose comparison (Example 3); format: in vivo
Experimental: Animals showing signs of joint inflammation with a total score of 1 to 3 were included in the therapy experiments. When the joint inflammation was too high at day one (more than one paw, score>3) mice were not included in the therapy experiments. Experiments were performed under a project license granted by the Veterinaeramt des Kantons Zuerich, Switzerland (208/2010).
The dose for TNFR-Fc was determined by calculations from the human ENBREL dose and the approximate local TNF concentration compared with the bioactivity of the fusion protein.

[7] = Solubility of the product (limit of dose escalation); format: physicochemical; conditions: doses above 90 μg could not be tested
[8] = test system: tumour neovascular structures in murine F9, CT26 and A20 tumours; assay: Immunofluorescence on untreated tumour sections; set-up: species or system mouse; conditions: biotinylated protein on F9, CT26 and A20 tumour sections
Text: For detection streptavidin-Alexa Fluor 488 and anti-rat-Alexa Fluor 594 (Invitrogen) were used. Slides were mounted with fluorescent mounting medium (Dako) and analyzed with an Axioskop2 mot plus microscope (Zeiss).

[9] = test system: F9 teratocarcinoma; assay: Ex vivo immunofluorescence of treated F9 tumours; format: in vivo, mouse; conditions: ex vivo immunofluorescence after i.v. administration
Experimental: For ex vivo detection of the localization of the IL4-based immunocytokines and of tumour infiltrating cells after therapy, mice were injected three times with the appropriate proteins as for therapy experiments and sacrificed two days after the last injection. Tumours were excised, embedded in cryoembedding medium (Thermo Scientific) and cryostat sections (10 μm) were stained using the antibodies: Anti-IL4 antibody (eBioscience), CD45 (leukocytes, BD Biosciences), CD4 (CD4+Tcells, BioXCell), CD8 (CD8+Tcells, BioXCell), F4/80 (macrophages, Abcam), Asialo GM1 (NK cells, Wako Pure Chemical Industries), CD45R (B cells, eBioscience), Foxp3 (eBioscience), CD31 (Santa Cruz); and detected with AlexaFluor488 respectively AlexaFluor594 coupled secondary antibodies (Invitrogen). Slides were mounted with fluorescent mounting medium (Dako) and analyzed with an Axioskop2 mot plus microscope (Zeiss).

[10] = test system: F9 teratocarcinoma; assay: Quantitative biodistribution in F9 tumour-bearing mice; format: in vivo, mouse
Experimental: The in vivo targeting performance was assessed by quantitative biodistribution where 15 μg of radioiodinated fusion protein was injected i.v. into the lateral tail vein of immunocompetent 11-12 week old female Sv129Ev mice (obtained from Charles River [Germany]), bearing sub-cutaneously grafted F9 tumours (for labelling protocol, see (Pasche et al. 2011)). Mice were sacrificed 24 hours after injection, organs were excised, weighed and radioactivity was measured using a Packard Cobra γ counter.

[11] = test system: A20 lymphoma; assay: Therapy studies in A20 tumour-bearing mice; conditions: 90 μg i.v. every second day
Text: as §1
Differences in tumor volume, % ID/g and Tumor-to-blood ratio between therapeutic groups were compared using Graphpad Prism's repeated measures (mixed model) ANOVA analysis.
For this, as well as the other experiments described below, F9 teratocarcinoma (CRL-1720; ATCC, Molsheim Cedex, France), CT26 colon carcinoma (CRL-2638; ATCC, Molsheim Cedex, France) and A20 lymphoma (TIB-208; ATCC, Molsheim Cedex, France) were grown according to the supplier's protocol and tumour cells implanted subcutaneously in the flank using 25×10^6 cells (F9), 2×10^6 cells (CT26) or 8×10^6 cells (A20). F9 teratocarcinoma cells were implanted into 129/SvEv mice (Charles River, Sulzfeld, Germany), CT26 colon carcinoma cells were implanted into Balb/c mice (Elevage Janvier, Le Genest-St-Isle, France) and A20 lymphoma cells were implanted into Balb/c mice (Elevage Janvier, Le Genest-St-Isle, France). Mice were sacrificed when tumour volumes reached a maximum of 2000 mm^3.

[12] = test system: cytokine levels in ear tissue; assay: Cytokine levels in ear tissue extracts of psoriasis models (multiplex bead flow cytometry); format: in vivo, mouse
Experimental: Ear tissue was obtained at the end of therapy from each mouse and processed to a tissue extract as previously described (Schwager et al., 2013). The end of therapy was day 13 for the IMQ model described in Example 14 and day 15 for the CHS model described in Example 15. Briefly, ears were cut into small pieces and suspended in a 50 mM Tris, 150 mM NaCl buffer containing complete protease inhibitor cocktail (Roche Diagnostics, Rotkreuz, Switzerland). For homogenization, a 5 mm stainless steel bead (Qiagen, Hombrechtikon, Switzerland) was added, and the tissue was homogenized in a QIAGEN Tissue Lyzer (4× 1 minute, 4° C., 30 Hz). After centrifugation (5 min, 4° C., 16,000 g), supernatant was harvested […]. Protein concentrations were determined by BCA assay (Thermo Fisher Scientific, IL) and total protein concentration of all samples was normalized. To quantify cytokine levels of treated and control mice, a multiplex bead-based flow cytometry analysis was performed using the mouse Th1/Th2/Th17/Th22 13plex FlowCytomix Multiplex kit (eBioscience). FACS analysis was performed on a BD FACS Canto (BD Bioscience, Allschwil, Switzerland) and data evaluated with FlowCytomix Pro 3.0 software (eBioscience). Using standard curves generated by the FlowCytomix Pro 3.0 software with control samples, a level of quantification was assigned for each cytokine.

[13] = test system: endometriotic lesions in Balb/c mice; assay: Endometriosis model in Balb/c mice; format: in vivo, mouse
Experimental: Endometriosis was induced in sixty eight-week old female Balb/c mice according to the protocol described by Somigliana et al. (1999).
One day after the implantation of endometrial tissue, pairs of mice (who received tissue from the same donor) were treated either with intravenous (i.v.) injections of F8-murine IL4 (200 μg/mouse; SEQ ID NO: 21) or PBS (group 1); or with i.v. injections of KSF-murine IL4 (200 μg/mouse; SEQ ID NO: 44) or PBS (group 2). The same treatment was repeated at days 4 and 7. Mice were sacrificed at day 15.

[14] = 15 μg radioiodinated protein i.v., 24 hours
[15] = IMQ and CHS models, end of therapy
[16] = 200 μg/mouse i.v. days 1, 4, 7, day 15, vs PBS

B1: F8-IL4: antibody F8 (anti-EDA of fibronectin) in diabody format fused at the C-terminus to murine interleukin 4 via 15 amino acid linker (protein)
chain: EVQLLESGGGLVQPGGSLRLSCAASGFTFSLFTMSWVRQAPGKGLEWVSAISGSGGSTYYADSVKGRFTISRDNSKNTLYLQMNSLRAEDTAVYYCAKSTHLYLFDYWGQGTLVTVSSGGSGGEIVLTQSPGTLSLSPGERATLSCRASQSVSMPFLAWYQQKPGQAPRLLIYGASSRATGIPDRFSGSGSGTDFTLTISRLEPEDFAVYYCQQMRGRPPTFGQGTKVEIKSSSSGSSSSGSSSSGHIHGCDKNHLREIIGILNEVTGEGTPCTEMDVPNVLTATKNTTESELVCRASKVLRIFYLKHGKTPCLKKNSSVLMELQRLFRAFRCLDSSISCTMNESKSTSLKDFLESLKSIMQMDYS
modifications: Synthetic sequence Amino acid sequence of F8 -(murine) IL4 of PCT/EP2014/053998
notes: antibody F8 (anti-EDA of fibronectin) in diabody format fused at the C-terminus to murine interleukin 4 via 15 amino acid linker
**Q.** What does the source list for B1?
**A.** accumulation around tumour neo-vascular structures [1]: preferential accumulation; therapeutic performance [2]: superior therapeutic performance compared to KSF-IL4; affinity for the cognate antigen [3]: retained a high-affinity for the cognate antigen; activity in reducing arthritic score and paw swelling compared to KSF-IL4 [4]: statistically significant superior activity; accumulation at the tumour site [5]: preferentially accumulated at the tumour site; reduction in paw swelling compared with murine version of ENBREL ([6]; 100 μg vs TNFR-Fc 30 μg): at least equivalent; tolerability ([6]; 100 μg/injection): well tolerated; weight change ([6]; 100 μg/injection): lost less weight than mice receiving only the buffer vehicle (PBS); disease-modulating effect (arthritic score) ([6]; 100 μg/injection i.v., days 1, 4 and 7): at least as potent as the murine version of Enbrel (TNFR-Fc); paw swelling ([6]; 100 μg, vs buffer vehicle or low dose): less severe paw swelling than mice receiving only the buffer vehicle or low amounts of F8-IL4; solubility [7]: insufficient solubility; recognition of tumour neovascular structures [8]: able to recognize tumour neovascular structures; accumulation on CD31-positive tumour neo-vascular structures [9]: preferential accumulation; accumulation at the tumour site (% ID/g) [10, 14]: preferential accumulation; tumour-to-blood ratio [10, 14]: 12; clearance from the blood stream ([10]; 24 hours after i.v. injection): fast clearance from the blood stream; tumour growth retardation [11]: superior tumour growth retardation compared to KSF-IL4; IL2 level in ear tissue [12, 15]: do not appear to show a change in concentration; IL10 level in ear tissue [12, 15]: up-regulated; IL13 level in ear tissue [12, 15]: up-regulated; IL27 level in ear tissue [12, 15]: up-regulated; IL-1 alpha level in ear tissue ([12]; IMQ-induced psoriasis model): may be down-regulated; mice completely cured of the disease ([13]; 200 μg/mouse i.v.): three mice out of ten; number of the endometriotic lesions [13, 16]: statistically significant reduction; volume of the endometriotic lesions [13, 16]: statistically significant reduction
